Patent US20220267442A1

Molecular target: recombinant human TGF-β1 (human) (UniProt P01137)
Experiment: cell-based or functional assay

Sequence of recombinant human TGF-β1 (human) (P01137 279-390 limits assumed): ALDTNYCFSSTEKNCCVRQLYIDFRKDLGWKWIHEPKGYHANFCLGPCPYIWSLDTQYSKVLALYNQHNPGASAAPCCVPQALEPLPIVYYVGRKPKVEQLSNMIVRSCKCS

B1: anti-TGF-β (αTGF-β, 1D11 clone) (antibody, from another filing, V domains shown)
VH: QVQLQQSGPELVRPGASVKLSCKASGYIFITYWMNWVKQRPGQGLEWIGQIFPASGSTNYNEMFEGKATLTVDTSSSTAYMQLSSLTSEDSAVYYCARGDGNYALDAMDYWGQGTSVTVSS
VL: DIVLTQSPASLAVSLGQRATISCRASESVDSYGNSFMHWYQQKSGQPPKLLIYLASNLESGVPARFSGSGSRTDFTLTIDPVEADDAATYYCQQNNEDPLTFGAGTKLEIK
- 80% maximal inhibition (IC80), TGF-β signaling reporter assay (TGF-β/SMAD luciferase in HEK293 cells, 10 ng/mL recombinant human TGF-β1): 25 nM
